Test results taken from US11597951B2 (Lygos, Inc., priority 2018, dated 2023).

Assays:
[1] = test system: S. cerevisiae BY4741 yeast cells; assay: Production of malonate in yeast expressing various malonyl-CoA hydrolases; type: cell-based; conditions: S. cerevisiae BY4741, SD-Ura, 30° C., 140 h of fermentation; mean±S.D.; n=4
From the text: Nucleic acids encoding various malonyl-CoA hydrolases provided by this disclosure [EHD3 (E124S), B9IZZ9-1, F0PNG8-1, H0NHL7, C3ALI3-1, Q81DR3-1, A4XS22-1, E2XN63-1, A5W8H3-1 and F6AA82-2] were amplified by PCR from plasmids using the primers listed in Table 4. The purified PCR products were cloned downstream of the TEF1 promoter and upstream of the CYC1 terminator in a shuttle vector containing an ampicillin resistance cassette, a PMB1 origin of replication, a CEN/ARS origin of replication and a URA3 selection marker. The resulting plasmids were transformed into E. coli competent host cells and selected on LB agar plates containing Cb^50. Following overnight incubation at 37° C., individual colonies were inoculated in 2 ml of LB-Cb^50 in a 48-well plate and grown for 5 h at 37° C. on a shaker before the plasmids were isolated and confirmed by sequencing.
S. cerevisiae BY4741 yeast cells were used as host for the vectors for expression of the various malonyl-CoA hydrolases. The plasmid vectors were individually introduced into the yeast host cells using standard procedures. […]
An individual colony for each transformant picked was inoculated into a 50 μl aliquot of SD-Ura medium in a 96-well plate. […] No malonate was detected in samples consisting of medium not inoculated with yeast cells. […]

E. coli strain K12 = assay: In vivo production of malonate in E. coli using S. cerevisiae EHD3 malonyl-CoA hydrolases; type: cell-based
Method: This example describes the host cells and culture conditions resulting in the in vivo production of malonate using a heterologous EHD3 malonyl-CoA hydrolase in an E. coli host cell. E. coli strain K12 was transformed with vectors containing wild-type EHD3, EHD3 (E124A), […], EHD3 (E124S), EHD3 (E124A, E308V) or an empty vector negative control. Transformants were streaked on LB agar plates (Cm^50, 2% glucose). Following overnight growth at 37° C., individual colonies were inoculated into 3 ml LB (Cm^50, 2% glucose) in a 48-well plate. Cultures were incubated on a plate shaker at 37° C. for 6 hours, at which point each culture was inoculated 1% v/v into M9 minimal medium supplemented with Cm^50 and a mixed carbon source (0.5% glycerol, 0.05% glucose, 0.2% lactose) in a 48-well plate. Cultures were incubated on a plate shaker at 30° C., and a 500 μL sample of the fermentation broth was removed for analysis after 48 hours incubation.
Samples were centrifuged (×6000 g, 1 min) and the supernatant analyzed for malonate quantification. Chemical standards were prepared in […] of water. The separation of malonate was conducted on a Shimadzu Prominence XR UPLC connected to a refractive index detector and UV detector monitoring 210 nm. Product separation was performed on a Bio-Rad Fermentation Monitoring column. The UPLC was programmed to run isocratically using 5 mM H2504 as the eluant with a flow rate of 600 μL per minute. 10 μL were injected per sample, and the sample plate temperature was held at 4° C. Malonate standards began eluting at […]. […] Malonate concentrations (mg/1) were calculated by comparison to a standard curve prepared from authentic malonate.

B1: EHD3 (E124S) (protein, UniProt P28817 1-500, looked up, variant E124S)
Small ribosomal subunit …: MLRNTLKCAQLSSKYGFKTTTRTFMTTQPQLNVTDAPPVLFTVQDTARVITLNRPKKLNALNAEMSESMFKTLNEYAKSDTTNLVILKSSNRPRSFCAGGDVATVAIFNFNKEFAKSIKFFTDSYSLNFQIATYLKPIVTFMDGITMGGGVGLSIHTPFRIATENTKWAMPEMDIGFFPDVGSTFALPRIVTLANSNSQMALYLCLTGEVVTGADAYMLGLASHYVSSENLDALQKRLGEISPPFNNDPQSAYFFGMVNESIDEFVSPLPKDYVFKYSNEKLNVIEACFNLSKNGTIEDIMNNLRQYEGSAEGKAFAQEIKTKLLTKSPSSLQIALRLVQENSRDHIESAIKRDLYTAANMCMNQDSLVEFSEATKHKLIDKQRVPYPWTKKEQLFVSQLTSITSPKPSLPMSLLRNTSNVTWTQYPYHSKYQLPTEQEIAAYIEKRTNDDTGAKVTEREVLNHFANVIPSRRGKLGIQSLCKIVCERKCEEVNDGLRWK
Question: B1 was tested. Which “Malonate Peak Area” value [1] did it give?
Answer: Its value is 94,721 ± 8,115.

Question: What about the “malonate production relative to wild-type EHD3” value (E. coli strain K12; E. coli K12, 48 hours) of the same molecule?
Answer: The value was “significant (p<0.05, t-test) increase”.

Question: And the “Malonate Concentration” value (E. coli strain K12; E. coli K12, M9 minimal medium, 30° C., 48 hours, mean±std dev, n=3)?
Answer: The value was 82.3 ± 7.8 mg/L.
